Laboratory results as given in patent US9725517B2, “Humanized monoclonal antibodies against the extracellular domain of human death receptor 5” (Institute of Basic Medical Sciences, Chinese Academy of …, priority 2012, dated 2017).

Tested on: Jurkat, HCT116, BEL-7402 and H460 cancer cells
Assay: CCK-8 cytotoxicity assay of killing cancer cells
Assay type: cell-based, human
Conditions: summary statement; leukemia, liver cancer, colon cancer, lung cancer cells
Description: The assay was carried out in 96-well cell culture plates. Various concentrations (0, 0.5, 1, 2, 4, 8 μg/ml) of humanized anti-human DR5 monoclonal antibodies AD10, AD14 and AD15 were separately added into to human T-cell lymphocytic leukemia cells Jurkat (ATCC, TIB-152), colon cancer cells HCT116 (ATCC, CCL-247), liver cancer cells BEL-7402 (cell bank, Shanghai Institutes for Biological Sciences of Chinese Academy of Sciences, TCHu 10) and non-small cell lung cancer cells H460 (ATCC, HTB-177) in logarithmic growth phase, for 24 hours; parental murine anti-human DR5 monoclonal antibody (AD5-10) and human-mouse chimeric antibody zaptuximab were used as controls. According to the protocol of CCK-8 cytotoxicity detection kit (Dojindo, Gaithersburg, Md.), CCK-8 agents were added and incubated for 2 to 4 hours, the OD value was measured at 450 nm wavelength in micro-ELISA plate detector. The OD value in cell-free well was set as blank control “0”. Cell survival rate=OD value in treated well/OD value in untreated well.

B1: zaptuzumab: intact humanized monoclonal antibody against DR5 expressed in HEK293 cells and purified by affinity chromatography (antibody, chains of the INN, looked up, V domains shown)
VH: QVQLVQSGSELKKPGASVKVSCKASGYTFTDFSMNWVRQAPGQGLEWMGWINTETGEPTYADDFKGRFVFSLDTSVSTAYLQISSLKAEDTAVYYCARIDYWGQGTTVTVSS
VL: DIVMTQSPLSLPVTPGEPASISCRSSQSLVHSNGNTYLHWYLQKPGQSPQLLIYKVSNRFSGVPDRFSGSGSGTDFTLKISRVEAEDVGVYYCFQSTHVPHTFGQGTKLEIK
For B1, the “killing activity to cancer cells in vitro” value was “strong killing activity to various cancer cells”.
